Measured values from patent US10975123B2, “Mutant Akt-specific capture agents, compositions, and methods of using and making” (California Institute of Technology, priority 2014, dated 2021).
Primed or numbered codes have the meaning given here. Where no end group is shown, it is not given here. [ ]: non-standard residue; d: D form. PEG5′ = PEG5 linker

Experiments:
[1] = target: full length Akt1E17K (Homo sapiens, UniProt P31749, E17K); assay: Fluorescence polarization binding to full-length E17K Akt1; settings: triligand 9, triplicate, in words
Experimental: FIG. 2: Anchor ligand structure and characterization. (FIG. 2A) The peptide anchor ligand, yleaf (SEQ ID NO: 43), which was discovered using the epitope-targeting technique. The different sets of R groups indicate the modifications that were made to perform the various experiments described. (FIG. 2B) Point ELISA for specificity obtained by immobilizing biotinylated yleaf (SEQ ID NO: 43) anchor ligand 2 onto a Neutravidin plate, then incubating with a 6 His-tagged epitope (“6 His” disclosed as SEQ ID NO: 4) 3. […] (FIG. 2C) Binding curves of yleaf (SEQ ID NO: 43) anchor ligand 4 to the full-length WT or E17K mutant Akt1 proteins obtained in solution by fluorescence polarization. A saturation point for the WT ligand was not reached due to the prohibitively high protein concentration required. (FIG. 2D) Full binding curves of yleaf (SEQ ID NO: 43) anchor ligand 4 to the WT or E17K mutant epitopes. […] All assays were performed in triplicate and averaged. Error bars indicate standard deviation.
FIG. 5: The PCC agent triligand development strategy, structure, and inhibition data. (FIG. 5A) The yleaf (SEQ ID NO: 43) anchor ligand with a C-terminal alkyne 2 was screened against an azide-terminated library in the presence of the full-length PH Domain to identify a biligand. The biligand 7 was then appended with an N-terminal azide and screened against an alkyne library to identify a triligand. […]

[2] = target: T1, HEK-293T cells expressing GFP-tagged E17K PH Domain (Homo sapiens, UniProt P31749, E17K); assay: Cell imaging, cells expressing E17K protein; format: cell-based; settings: confocal imaging, 50 nM, compared with WT cells, in words
T1 construct: transfected to express GFP-tagged E17K or GFP-tagged WT PH Domain proteins; expressed in transfected cells; host or cells: HEK-293T
Description: The yleaf ligand was then labeled with both a Tat cell-penetrating peptide^22 and a Cy5 dye (FIG. 2a). The combination of the GFP label on the protein and the Cy5 label on the dye permitted the use of multi-color fluorescence microscopy for interrogating any spatial registry between the two fluorescent labels, as well as tracking the efficiency of the protein expression in the cells. Live HEK-293T cells expressing these GFP-tagged proteins were exposed to varying concentrations of the modified yleaf anchor ligand 6 for one hour. The cells were then incubated in fresh media for one hour before being thoroughly washed in PBS to remove weakly and nonspecifically bound PCC and fixed for fluorescence microscopy measurements.
However, the level of the PCC agent retained by the cells was substantially different (FIG. 4). […] Pearson's correlation coefficient was used to quantify the co-localization of the two different dyes^23 by calculating over four representative images for each of the WT or E17K mutant cells and averaging the results. […] The Cy5 fluorescence intensity on a per cell basis has also been calculated for the cells expressing the WT and E17K proteins, and this difference is again statistically significant (p=0.00018). […]

full length Akt1E17K, sequence (P31749 whole entry E17K): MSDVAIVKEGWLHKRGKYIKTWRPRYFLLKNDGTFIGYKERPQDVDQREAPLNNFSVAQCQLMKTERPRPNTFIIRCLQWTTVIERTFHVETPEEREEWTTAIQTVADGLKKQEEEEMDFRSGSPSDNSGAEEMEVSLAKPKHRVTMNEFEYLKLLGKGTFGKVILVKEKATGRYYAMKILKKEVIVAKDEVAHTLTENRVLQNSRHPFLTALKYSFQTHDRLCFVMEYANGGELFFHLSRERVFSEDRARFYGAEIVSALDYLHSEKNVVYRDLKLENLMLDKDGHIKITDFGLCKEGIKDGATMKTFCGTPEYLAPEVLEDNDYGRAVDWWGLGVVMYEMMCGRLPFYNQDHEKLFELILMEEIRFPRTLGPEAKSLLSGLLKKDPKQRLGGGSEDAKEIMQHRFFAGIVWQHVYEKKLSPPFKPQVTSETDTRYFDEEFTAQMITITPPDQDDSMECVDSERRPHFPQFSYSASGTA
T1 sequence (P31749 5-108 E17K limits assumed): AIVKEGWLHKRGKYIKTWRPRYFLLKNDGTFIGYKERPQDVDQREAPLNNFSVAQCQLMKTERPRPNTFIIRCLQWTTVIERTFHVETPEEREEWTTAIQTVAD

| Substance | selectivity for E17K over WT full-length protein by fluorescence polarization [1] | retention of Cy5-labeled ligand in cells expressing E17K PH Domain (Cy5 signal) [2] |
| --- | --- | --- |
| triligand 9: form of the ivdae-yleaf-yksy triligand used in fluorescence polarization assays (peptide 1 [dI][dV][dD][dA][dE]; peptide 2 [dY][dL][dE][dA][dF]; peptide 3 [dY][dK][dS][dY]; also: three chains joined by triazole click linkages (Lys(N3) and Pra handles), places not settled) | E17K mutant selectivity is retained |  |
| PEG5-TAT-Cy5: control construct with no anchor ligand peptide, used in cell imaging ([PEG5′]YGRKKRRQRR; not fully specified (C-terminus); numbers in words are those of the source; also: Cy5 dye attached, site not given here) |  | looks the same as the WT PH Domain images |
